In publication PMC12151214:

B1: GFP-HMGA1 (WT) [human] / mCherry-LacI-CHFR [human] (parent)
chain 1: MSESSSKSSQPLASKQEKDGTEKRGRGRPRKQPPVSPGTALVGSQKEPSEVPTPKRPRGRPKGSKNKGAAKTRKTTTTPGRKPRGRPKKLEKEEEEGISQESSEEEQ
chain 2: MERPEEGKQSPPPQPWGRLLRLGAEEGEPHVLLRKREWTIGRRRGCDLSFPSNKLVSGDHCRIVVDEKSGQVTLEDTSTSGTVINKLKVVKKQTCPLQTGDVIYLVYRKNEPEHNVAYLYESLSEKQGMTQESFEANKENVFHGTKDTSGAGAGRGADPRVPPSSPATQVCFEEPQPSTSTSDLFPTASASSTEPSPAGRERSSSCGSGGGGISPKGSGPSVASDEVSSFASALPDRKTASFSSLEPQDQEDLEPVKKKMRGDGDLDLNGQLLVAQPRRNAQTVHEDVRAAAGKPDKMEETLTCIICQDLLHDCVSLQPCMHTFCAACYSGWMERSSLCPTCRCPVERICKNHILNNLVEAYLIQHPDKSRSEEDVQSMDARNKITQDMLQPKVRRSFSDEEGSSEDLLELSDVDSESSDISQPYVVCRQCPEYRRQAAQPPHCPAPEGEPGAPQALGDAPSTSVSLTTAVQDYVCPLQGSHALCTCCFQPMPDRRAEREQDPRVAPQQCAVCLQPFCHLYWGCTRTGCYGCLAPFCELNLGDKCLDGVLNNNSYESDILKNYLATRGLTWKNMLTESLVALQRGVFLLSDYRVTGDTVLCYCCGLRSFRELTYQYRQNIPASELPVAVTSRPDCYWGRNCRTQVKAHHAMKFNHICEQTRFKN

Variants of: B1
Assay: LacI-LacO fluorescence colocalization assay (GFP-HMGA1 foci intensity at LacO array, ImageJ)
Conditions: with mCherry-LacI-CHFR [human]; U2OS-265 cells cotransfected for 24 h; parent: 1.5; read off a plot

Row | Variant | response
1 | chain 1 MSESSSKSSQPLASKQEKDGTEKRGRGRPRKQPPVSPGTALVGSQKEPSQVPTPKRPRGRPKGSKNKGAAKTRKTTTTPGRKPRGRPKKLEKEEEEGISQESSEEEQ [chain 1 E50Q] | 1
